Source: paper PMC12207370, “Macrocyclic Peptide Probes for Immunomodulatory Protein CD59: Potent Modulators of Bacterial Toxin Activity and Antibody‐Dependent Cytotoxicity” (Angewandte Chemie (International Ed. in English), 2025)

Molecular target: T1, biotinylated CD59 (Homo sapiens, UniProt P13987)
T1 construct: Recombinant soluble human CD59 with an additional C-terminal cysteine residue
T1 sequence (P13987 26-102 limits assumed): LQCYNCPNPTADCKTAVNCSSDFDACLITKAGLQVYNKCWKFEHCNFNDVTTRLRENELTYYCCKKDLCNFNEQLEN
Assay: mRNA-display cyclic peptide screen against CD59-biotin, NGS abundance after 6th selection round
Settings: for Percentage Seq I: counts normalised by total counts of sample Seq I; for Percentage Seq I / Percentage Seq II: percentage of the pool; for Percentage Seq I / Percentage Seq II / Percentage Average / Percentage of the pool, averaged across the two sequencing samples / Percentage of the pool, Seq I / Percentage of the pool, Seq II: sheet R6; for Percentage Seq II: counts normalised by total counts of sample Seq II; for Percentage Average: percentage of the pool averaged across the two sequencing samples; for Counts Seq I / Counts Seq II: raw NGS counts of peptide sequence; for Counts Seq I: sequencing sample Seq I; for Counts Seq I / Counts Seq II / Counts (raw counts for peptide sequence), Seq I / Counts (raw counts for peptide sequence), Seq II: sheet R6 (6th selection round); for Counts Seq II: sequencing sample Seq II; for Counts (raw counts for peptide sequence), Seq I: NGS sample Seq I; for Counts (raw counts for peptide sequence), Seq II: NGS sample Seq II; for Percentage of the pool, averaged across the two sequencing samples: average of Seq I and Seq II; for Percentage of the pool, Seq I: counts normalised by total counts of NGS sample Seq I; for Percentage of the pool, Seq II: counts normalised by total counts of NGS sample Seq II
In short: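 Peptide–mRNA fusions were made by in vitro translation with a customised PURE express kit. The kit lacked release factor 1 and methionine and was supplemented with […] initiator tRNA carrying N-chloroacetyl-d-tyrosine. Thioether macrocycles were formed, then enriched and amplified over iterative rounds on CD59-biotin immobilised on streptavidin beads. NGS read counts per sequence were recorded after the 6th selection round.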

Sequence	Percentage Seq I	Percentage Seq II	Percentage Average	Counts Seq I	Counts Seq II	Counts (raw counts for peptide sequence), Seq I	Counts (raw counts for peptide sequence), Seq II	Percentage of the pool, averaged across the two sequencing samples	Percentage of the pool, Seq I	Percentage of the pool, Seq II
WRDRFDRCVL	0.020%	0.032%	0.026%	86	14	–	–	–	–	–
CYGGRTFIYAWP	0.060%	0.072%	0.066%	263	31	–	–	–	–	–
FVTGNRDHTHG	–	–	–	–	–	45	5	0.011%	0.010%	0.012%
CYGGRTFIYSWS	–	–	–	–	–	46	8	0.015%	0.011%	0.019%
VAHGSKKSQFW	0.088%	0.104%	0.096%	386	45	–	–	–	–	–
SRGGKDWSRG	0.235%	0.251%	0.243%	1026	108	–	–	–	–	–
IARGDRTFSFG	0.013%	0.035%	0.024%	57	15	–	–	–	–	–
CFLNRASFSGI	–	–	–	–	–	60	6	0.014%	0.014%	0.014%
CYGGRTFIYACS	0.019%	0.021%	0.020%	83	9	–	–	–	–	–
HVFGSRSFTRG	0.074%	0.084%	0.079%	323	36	–	–	–	–	–
HCWVRGSRNHT	–	–	–	–	–	54	5	0.012%	0.012%	0.012%
CYGGRTFIYARS	0.027%	0.016%	0.021%	117	7	–	–	–	–	–
YSSGSRHWTRS	–	–	–	–	–	57	7	0.015%	0.013%	0.016%
CFTHRLTDFGT	0.053%	0.070%	0.061%	230	30	–	–	–	–	–
FVRGDPYSVLG	0.057%	0.049%	0.053%	251	21	–	–	–	–	–
CFKHRLGTDSA	0.097%	0.086%	0.091%	423	37	–	–	–	–	–
WIRGSRFYRVI	0.387%	0.334%	0.360%	1692	144	–	–	–	–	–
HVFGNKSFTRG	–	–	–	–	–	63	9	0.018%	0.014%	0.021%
CSSLRARGWI	–	–	–	–	–	75	3	0.012%	0.017%	0.007%
FVRGDLYSALG	–	–	–	–	–	80	6	0.016%	0.018%	0.014%
